Source: patent US20250075191A1, “MODIFIED BIOLUMINESCENT ENZYMES” (Light Bio, Inc., priority 2023, published 2025)

What was measured:
[1] = Luciferase luminescence in E. coli lysates after luciferin addition; type: biochemical; settings: 100 μM luciferin, maximal brightness
From the text: A library of amino acid substitutions was created applying mutagenesis to a gene encoding the luciferase derived from Neonothopanus nambi (SEQ ID NO: 8). pF4Ag shuttle vector (Promega) was used for gene expression in E. coli (T7 promoter-driven expression) and mammalian cells (CMV promoter-driven expression). The pF4Ag vector backbone introduces a C-terminal 3×-FLAG-HiBiT tag. Site-directed mutagenesis was used to substitute consensus amino acids at selected position in the luciferase sequence. Gene expression was performed in the E. coli strain KRX (Promega), which enables rhamnose-inducible expression of T7 RNA polymerase.
Colonies (in triplicate) were used to inoculate LB broth containing ampicillin ([…]) and cultures grown overnight in 96-well microtiter plates (20 hours, 37° C.). Cultures were diluted into fresh LB containing 0.1% rhamnose and ampicillin and grown for 3 hours at 37° C. 50 μl of the induced culture was lysed for 5 minutes at ambient temperature with a reagent consisting of 25 mM HEPES pH 7.5 and 0.3×PLB (E1941 Promega). 50 μl of lysate was combined with 50 μl luciferin (100 μM) in the lysis buffer and samples were measured for total luminescence using a GloMax®-Multi+luminometer. (Promega).

[2] = Enzyme thermostability in cleared E. coli lysates incubated at 22° C.; type: biochemical; settings: then 100 μM luciferin
Method: To assess the effect on enzyme thermostability by the amino acid substitutions, lysates of transformed E. coli were prepared by sonication and cleared by centrifugation. The cleared lysates were diluted 1:100 into Tris-buffered saline with 0.01% BSA and 0.1% n-dodecyl β-D-maltoside. 100 μl of each diluted lysate were added to a 96-well PCR plate. Samples were incubated at 22° C. and at various time points aliquots were placed on ice. When all of the samples were processed, 50 μl of each was combined with 50 μl of 100 μM luciferin in Tris-buffered saline with 0.01% BSA and 0.1% n-dodecyl β-D-maltoside. Samples were immediately placed in a GloMax®-Multi+luminometer (Promega) to measure bioluminescence.

[3] = tested on: HEK293 cells; experiment: Luciferase luminescence by transient expression in HEK293 cells after luciferin addition; type: cell-based; settings: living HEK293 cells, luciferin 740 μM final concentration
Method: Production of luminescence by nnLuz_v3 was measure in E. coli lysates by the above method, and in mammalian cells (HEK293 cells). The HEK293 cells were transfected using the FugeneHD transfection reagent (Promega) according to the manufacturer's instructions. Cells were grown overnight under CO2 at 37° C. in 96-well white assay plates. For luminescence measurements, media was removed and replaced with 100 μl of CO2 independent media (Life Technologies 18045) containing 10% FBS. 33 μl of luciferin was added to cells (740 μM final concentration). The luminescence was measured using a GloMax-Multi+luminometer (Promega).

[4] = tested on: yeast cells (P. pastoris); experiment: Stability of luciferase within yeast cells after 10 min incubation at different temperatures; type: cell-based; settings: then luciferin
Method: To evaluate stability of nnLuz_WT and nnLuz_v4 within yeast cells, strains expressing nnLuz WT or nnLux_v4 were grown on plates for 24 hours, then resuspended in PBS to final OD (600 nm)=5 and 50 μl was placed in wells of a 96-well PCR plate. Different portions of the plate were incubated at different temperatures for 10 minutes using a gradient thermal cycler. The plate were then placed on ice for 5 minutes and 10 μl of 500 μM luciferin (2% DMSO, 10 mM thioglycolic acid, 0.1% DDM in DPBS) were added to each well. Then 25 μl of suspension from each well was transferred to a black 96-well plate containing 0.2 M sodium phosphate buffer with 0.5 M Na2SO4,pH=8.

[5] = tested on: Pichia pastoris GS115; experiment: Luminescence imaging of transformed yeast after addition of luciferin, hispidin or caffeic acid; type: cell-based
Method: Integration of plasmids into the genome of Pichia pastoris GS115 was targeted at the GAP promoter locus. Linearized plasmids were used for the transformation of electrically competent yeast cells. Colonies were selected using […] of G418 or 200 mg/ml of hygromycin or 50 mg/ml of zeocin. PCR-based screening of yeast colonies was done by heating up colonies in 10 μl of 20 mM NaOH at 90° C. for 7 min and then using 1 μl of the resulting solution for direct PCR. For luminescence imaging, yeast culture grown on plate was resuspended in 50 μL of 1M sorbitol. 5 μL of the suspension was then added in 3 replicates to YPD agar plates lacking antibiotics. […] Imaging was performed in Fusion Pulse (Vilber, France), with exposure of 0.1 or 5 sec every 3 or 5 min for 1.0-1.5 hours—for caffeic acid treatment, with exposure of 20 sec for 20 mins—for hispidin treatment, with exposure of 0.5 sec every 10 sec for 10 mins in case of luciferin treatment.
Processing of images was performed using FiJi ImageJ distribution (version 1.53t) 20 and custom Python scripts (Python version 3.8). For luminescence quantification mean values in the region of interest after background subtraction were used. Background subtraction was performed using the following formula: signal=signalraw−(backgroundmean−3*backgroundSD).

[6] = Michaelis-Menten kinetics of HiBiT-fused luciferase in yeast lysates; type: biochemical; settings: fitted Michaelis-Menten model
From the text: To quantify the activity of nnLuz_v4 relative to the parental nnLuz_WT, genetic fusions were made with the HiBiT tag. The HiBiT tag is a small bioluminescent marker that may be appended onto other proteins, thereby providing a mechanism for measuring relative protein concentration. By fusing the tag onto the C-terminus of luciferase, variability in protein concentration can be normalized across independent samples.
Yeast strains expressing fusions of nnLuz_WT and nnLuz_v4 with HiBiT were inoculated into YPD medium and cultured at 30° C. with 220 rpm for 18-20 hours. Then 4 ml of each yeast suspension were centrifuged at 5000 g (4° C.) and resuspended in 400 μL of 100 mM MOPS (pH=7.5), 4 mM EDTA, 2 mM TCEP, 1 mM PMSF. […]
Samples were diluted 25 fold in the same buffer as used for lysis and concentrated to a volume of 200 μL using Amicon Ultra-15 Centrifugal Filter Unit 10 kDa (Millipore). […] Luminescence was measured in Tecan Spark plate-reader with exposure of 500 ms for 15 min. Activity of each variant was normalized to the expression level of HiBiT, as quantified with HiBiT lytic reagent (Promega N3030).
To quantify luminescence, intensity values of the wells were normalized by the integral values for HiBiT luminescence kinetics. Then, the integral signal for each sample was calculated. […]

[7] = tested on: HEK293NT or HEK293 cell lines; experiment: Pathway luminescence in transfected mammalian cells in the presence of caffeic acid; type: cell-based; settings: gene set expressing nnLuz_WT, mcitHispS, nnCPH, and NpgA
Method: In different sets of experiments, HEK293NT or HEK293 cell lines were seeded in 96-well plates (ibidi, ibiTreat μ-Plate 96 Well Black). Cells were transfected with a mixture of the five plasmids that encoded variants of nnLuz, and nnH3H, along with nnHispS or mcitHispS, nnCPH, and NpgA by PolyFect Transfection Reagent (QIAGEN) according to the manufacturer's protocol, using 2 μl PolyFect per well and a mixture of plasmids containing 44 ng of plasmid expressing nnLuz, and equivalent amounts of the other four plasmids according to their size. Transfected cells were grown in DMEM (PanEco) supplemented with 10% fetal bovine serum (HyClone), 4 mM L-glutamine, 10 U/ml penicillin and 10 µg/ml streptomycin, at 37° C. and 5% CO2. Twenty-four hours after transfection, the medium was changed to 25 μM or 100 μM caffeic acid solution (0.1% DMSO in DPBS) and luminescence was imaged for 23 minutes by IVIS Spectrum CT (PerkinElmer) at 37° C. every 9 seconds with open filter, binning of 16 and exposure of 5 seconds. The number of independent replicates is included in the figure's legends.

B1: nnLuz_v3: N. nambi luciferase with substitutions T99P, T192S, A199P combined (SEQ ID NO: 2) (protein, listed as Neonothopanus nambi)
chain: MRINISLSSLFERLSKLSSRSIAITCGVVLASAIAFPIIRRDYQTFLEVGPSYAPQNFRGYIIVCVLSLFRQEQKGLAIYDRLPEKRRWLADLPFREGPRPSITSHIIQRQRTQLVDQEFATRELIDKVIPRVQARHTDKTFLSTSKFEFHAKAIFLLPSIPINDPLNIPSHDTVRRTKREIAHMHDYHDCSLHLALAPQDGKEVLKKGWGQRHPLAGPGVPGPPTEWTFLYAPRNEEEARVVEMIVEASIGYMTNDPAGKIVENAK
In the case of B1, the “production of bioluminescence relative to parental nnLuz” value [1] is reported as “substantially greater”, the “enzyme stability relative to unmodified parental luciferase” value [2] is reported as “greater enzyme stability” and the “production of bioluminescence relative to parental nnLuz_WT” value [3] is reported as “substantially greater”.

B2: nnLuz_v4 (protein, listed as Neonothopanus nambi)
chain: MRSTISLSSLLERLSKLSSRSIAITCGVVLASAIAFPIIRRDYQTFLEVGPSYAPQNFRGYITVCVLSLFRQEQKGLAIYDRLPEKRRWLADLPFREGPRPSITSHIIQRQRTQLVDQEFATRELIDKVIPRVQARHTDKTFLSTSKFEFHAKAIFLLPSIPINDPLNIPSHDTVRRTKREIAHMHDYHDCSLHLALAPQDGKEVLKKGWGQRHPLAGPGVPGPPTEWTFLYAPRNEEEARVVEMIVEASIGYMTNDPAGKIVENAKGS
For B2, the “reduction of luminescence after incubation at 40° C.” value ([4]; 10 min at 40° C.) was “no loss of activity”, the “reduction of luminescence after incubation at 45° C.” value ([4]; 10 min at 45° C.) was 3 fold and the “bioluminescence relative to cells expressing nnLuz_WT” value ([5]; addition of 50 μM luciferin) was “greater bioluminescence”. For the same molecule, the “greater luminescence relative to nnLuz_WT” value ([5]; combined with nnH3H_v2, mcitHispS and NpgA, caffeic acid) was 1.9 fold, the “Km relative to nnLuz_WT” value [6] was “similar” and the “higher Vmax relative to nnLuz_WT” value ([6]; normalized to HiBiT) was 4.2 fold.

B3: nnH3H_v2: N. nambi hispidin hydroxylase with D37E, V181I, S323M, and M385K (SEQ ID NO: 6) (protein, listed as Neonothopanus nambi)
chain: MASFENSLSVLIVGAGLGGLAAAIALRRQGHVVKIYESSSFKAELGAGLAVPPNTLRSLQQLGCNTENLNGVDNLCFTAMGYDGSVGMMNNMTDYREAYGTSWIMVHRVDLHNELMRIALDPGGLGPPATLHLNHRVTFCDVDACTVTFTNGTTQSADLIVGADGIRSTIRRFVLEEDVTVPASGIVGFRWLVQADALDPYPELDWIVKKPPLGARLISTPQNPQSGVGLADRRTIIIYACRGGTMVNVLAVHDDERDQNTADWSVPASKDDLFRVFHDYHPRFRRLLELAQDINLWQMRVVPVLKKWVNKRVCLLGDAAHAMLPTLGQGFGMGLEDAVALGTLLPKGTTASQIETRLAVYEQLRKDRAEFVAAESYEEQYVPEKRGLYLRSKELRDRVMGYDIKVESEKVLETLLRSSNSA
With B3 the “bioluminescence relative to cells expressing nnH3H_WT and nnLuz_WT” value ([5]; co-expressed with nnLuz_WT, addition of 100 μM hispidin) was “greater bioluminescence”, the “greater luminescence relative to nnH3H_WT” value ([5]; combined with nnLuz_WT, mcitHispS and NpgA, caffeic acid) was 3.9 fold and the “greater luminescence compared with nnH3H_WT” value [7] was 2.5 fold.
